From patent US8349579B2, “Galectin-3 cleavage as a marker for matrix metalloproteinase activity in cancer” (Wayne State University, priority 2007, dated 2013)

Tests used:
[1] = system: gelatinolytic activity (MMP) in MCF10 DCIS.com xenograft sections; settings: DQ gelatin, incubated with EDTA (2 mM in method, 20 mM in FIG. 5 legend)
Protocol: In situ zymography was performed on the fresh frozen DCIS xenografts as described by Mook et. al. (29). In brief, 8 micron thick cryosections were air dried, rehydrated with PBS for 5 min and overlaid with a solution of 50 μg/ml fluorescein-labeled gelatin (DQ gelatin; Molecular Probes, Eugene, Oreg.), 1% w/v low melting temperature agarose (BioWhittaker Molecular Applications, Rockland, Me.) and 5 μg/ml DAPI (Molecular Probes) in PBS in the presence or absence of 2 mM EDTA and incubated on ice for 15 min followed by incubation in a humidified chamber at 37° C. for 2 hr. Protease catalyzed hydrolysis of the heavily labeled and totally quenched DQ Gelatin relieved the intra-molecular self quenching, yielding brightly fluorescent peptide, which was visualized by using imaging microscope.

MMP-2 = molecular target: T1, MMP-2 (Homo sapiens, UniProt P08253); experiment: Cleavage of recombinant galectin-3 proteins by activated MMP-2 (Western blot); format: biochemical; settings: purified active MMP-2, 15 min, 37° C.
T1 sequence (P08253 110-660): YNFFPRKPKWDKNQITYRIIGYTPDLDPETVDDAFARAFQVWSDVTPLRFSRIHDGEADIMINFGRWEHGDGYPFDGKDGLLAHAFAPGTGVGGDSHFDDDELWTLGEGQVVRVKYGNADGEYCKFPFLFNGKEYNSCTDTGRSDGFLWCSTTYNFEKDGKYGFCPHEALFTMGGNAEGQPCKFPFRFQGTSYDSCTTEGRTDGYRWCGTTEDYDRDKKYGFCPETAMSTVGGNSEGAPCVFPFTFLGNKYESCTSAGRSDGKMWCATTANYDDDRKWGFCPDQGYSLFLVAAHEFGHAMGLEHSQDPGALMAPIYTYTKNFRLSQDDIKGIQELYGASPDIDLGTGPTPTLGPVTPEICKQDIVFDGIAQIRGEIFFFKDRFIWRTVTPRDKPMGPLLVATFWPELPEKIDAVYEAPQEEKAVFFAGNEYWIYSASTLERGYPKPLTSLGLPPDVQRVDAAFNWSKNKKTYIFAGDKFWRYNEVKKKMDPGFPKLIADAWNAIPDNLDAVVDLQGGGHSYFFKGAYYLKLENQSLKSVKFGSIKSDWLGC

MMP-9 = MMP-9 (Homo sapiens, UniProt P14780); experiment: Cleavage of recombinant galectin-3 proteins by activated MMP-9 (Western blot); format: biochemical; settings: purified active MMP-9, 60 min, 37° C.
MDA-MB-435 tumors = settings: mice bearing MDA-MB-435 tumors, injection; cited from earlier work

Sequence of MMP-9 (P14780 107-707 limits assumed): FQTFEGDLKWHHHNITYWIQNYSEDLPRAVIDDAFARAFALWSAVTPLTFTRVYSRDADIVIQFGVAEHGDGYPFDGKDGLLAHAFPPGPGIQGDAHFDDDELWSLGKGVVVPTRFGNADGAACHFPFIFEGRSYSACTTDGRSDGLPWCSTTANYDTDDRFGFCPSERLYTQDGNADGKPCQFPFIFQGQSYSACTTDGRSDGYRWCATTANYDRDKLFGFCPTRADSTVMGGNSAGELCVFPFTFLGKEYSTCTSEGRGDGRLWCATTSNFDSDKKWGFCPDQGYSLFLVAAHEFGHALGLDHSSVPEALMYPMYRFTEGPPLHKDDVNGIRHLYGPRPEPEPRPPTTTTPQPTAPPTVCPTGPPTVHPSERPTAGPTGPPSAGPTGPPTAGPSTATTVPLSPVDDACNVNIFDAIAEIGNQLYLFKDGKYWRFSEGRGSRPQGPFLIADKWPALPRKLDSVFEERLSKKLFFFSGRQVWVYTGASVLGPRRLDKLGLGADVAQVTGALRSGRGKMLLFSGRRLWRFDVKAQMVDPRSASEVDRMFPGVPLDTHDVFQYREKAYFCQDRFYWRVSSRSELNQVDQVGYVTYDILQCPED

| Compound | gelatinolytic activity in the stroma [1] | polypeptide produced upon incubation with MMP-2 (MMP-2) [kDa] | polypeptide produced upon incubation with MMP-9 (MMP-9) [kDa] | tumor growth and metastasis (MDA-MB-435 tumors) |
| --- | --- | --- | --- | --- |
| O=C(O)CN(CCN(CC(=O)O)CC(=O)O)CC(=O)O [EDTA] | abrogated |  |  |  |
| A33G: recombinant galectin-3 mutant with A33G substitution |  | ~22 | ~22 |  |
| Wild type galectin-3: recombinant human wild type galectin-3, isolated from a GST fusion protein |  | ~22 | ~22 |  |
| cleaved galectin-3 peptide containing 108-250 amino acids: cleaved galectin-3 peptide containing 108-250 amino acids, from the literature (ref. 37) |  |  |  | loss of tumor growth and metastasis |
